Test results reported in the supplement of paper PMC12042874.
± gives the uncertainty stated by the source.

Assay: amyloid nucleation score (Sup35N fusion, yeast selection) (log enrichment); library NNK2; higher = more nucleation; inactive = no reads after selection
Procedure, shortened: (§1)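 On medium lacking adenine and uracil, psi-negative yeast expressing peptides of 20 random codons fused to Sup35N were grown 7 days at 30°C after a 24-hour induction with 100 μM copper sulfate. Illumina sequencing of input and output plasmid inserts gave the reads, and sequences under 100 input reads were excluded. The nucleation score is the DiMSum log enrichment of output over input reads, centred on the mode score of non-aggregating sequences.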
With AACYCCISRMVLYFSFHGSC the amyloid nucleation score was “inactive”. With AAHQMMCRFGPIPF the amyloid nucleation score was 1.22 ± 0.23. For AAIIISLSYMI, the amyloid nucleation score was 2.23 ± 0.075. With AALCGLKFVRERKWRKSILS the amyloid nucleation score was 0.345 ± 0.65. With AARFELYSNWS the amyloid nucleation score was 2.05 ± 0.21. With AASWHPAYCIYGPGGRDKVG the amyloid nucleation score was 2.49 ± 0.12. For ACANGDADVEWLSDFCEKDE, the amyloid nucleation score was 1.02 ± 0.35. ACANYGRVVWSSWDW gave an amyloid nucleation score of 0.388 ± 0.39. ACIYRQRDS showed an amyloid nucleation score of -0.332 ± 0.56. For ACLLIFLSTA, the amyloid nucleation score was 2.31 ± 0.078. Substance ACMIEFRILRYRREMMSICS has an amyloid nucleation score of 6.489 ± 0.039. For ACNLRAVYFT, the amyloid nucleation score was -1.47 ± 0.39. ACNNRMISGIRTTDCYIYRP gave an amyloid nucleation score of -0.261 ± 0.33. ACNSTFNRIEVYARVMKDTS gave an amyloid nucleation score of 3.96 ± 0.094. Work on ACQAFTCW yielded an amyloid nucleation score of 0.967 ± 0.26. Work on ACVNYYNSEATIVVRKGRMG yielded an amyloid nucleation score of 4.19 ± 0.071. For ACWKRMN, the amyloid nucleation score was “inactive”. ADDFINVNDTNKTVLCMCCG gave an amyloid nucleation score of -0.61 ± 0.78. ADEEFRRFIVPSFLPGSCSS showed an amyloid nucleation score of -0.08 ± 0.39. Work on ADPVNRKFLHSWDF yielded an amyloid nucleation score of 0.112 ± 0.29. AEDMSQARA showed an amyloid nucleation score of 1.15 ± 0.15. AFASYIKNDPPGEVPMAEL gave an amyloid nucleation score of 0.258 ± 0.24. AFCAGVQAPEFPNLA showed an amyloid nucleation score of 0.437 ± 0.65. Substance AFDIFFNVVWRPFVHSCLAR has an amyloid nucleation score of 0.041 ± 0.56. For AFKKYQS, the amyloid nucleation score was -0.114 ± 0.74. In the case of AFLLLRSMYW, the amyloid nucleation score is reported as 6.933 ± 0.026. In the case of AFLVYRKNNIPQYRVKVVDM, the amyloid nucleation score is reported as -0.225 ± 0.63. For AFRGSYLKFSESTCTIGSLW, the amyloid nucleation score was 2.12 ± 0.13. Substance AFRPVSSIGLCRWYMKRWNS has an amyloid nucleation score of 0.542 ± 0.19. In the case of AFTWLY, the amyloid nucleation score is reported as 0.942 ± 0.26. With AGANLLSLCSFKHAECYFSN the amyloid nucleation score was 6.31 ± 0.071. AGCVVNHTPRLLGRSTKRLK showed an amyloid nucleation score of 3.1 ± 0.062. Substance AGFSSDGLQVMIIYD has an amyloid nucleation score of 0.379 ± 0.31. For AGGEEIGGVSRS, the amyloid nucleation score was -1.07 ± 0.49. In the case of AGVWHSSLFITIQGVLNFGY, the amyloid nucleation score is reported as 6.017 ± 0.02. For AGWQCLCSLFLLKEITTCIS, the amyloid nucleation score was -0.367 ± 0.56. With AGYLNRNHLLRMLYWCSCFG the amyloid nucleation score was “inactive”. For AHHRCHWYECVMMPRHGPRP, the amyloid nucleation score was 1.26 ± 0.33. Substance AHSATINA has an amyloid nucleation score of -0.113 ± 0.44. Work on AIEYPYRCYRDVAWLRALAS yielded an amyloid nucleation score of 0.582 ± 0.28. Work on AIFGFTVVLVMFMRFLQDTC yielded an amyloid nucleation score of 0.732 ± 0.22.

Assay: amyloid nucleation score (Sup35N fusion, yeast selection) (log enrichment); library NNK3; higher = more nucleation; inactive = no reads after selection
Procedure, shortened: as §1
In the case of YRLISCLVFISGRFSN, the amyloid nucleation score is reported as “inactive”. YRLLEQLTLSCWANRVLRLG showed an amyloid nucleation score of -0.077 ± 0.61. For YRLRNCFRHMPAAQTFTP, the amyloid nucleation score was “inactive”. Work on YRLYDQLRGYRGLAYLTYVL yielded an amyloid nucleation score of -0.187 ± 0.69. With YRMIKHRTFDSPVLFS the amyloid nucleation score was “inactive”. With YRNCLLRDMSWVVDFIDIKT the amyloid nucleation score was “inactive”. In the case of YRPAALSYQTRVCGTYWNDR, the amyloid nucleation score is reported as “inactive”. For YRPVQSVQIVHLLSILILVW, the amyloid nucleation score was “inactive”. In the case of YRRGYKITSLLSFYGNHRWP, the amyloid nucleation score is reported as “inactive”. In the case of YRRSGTYMSDSGVLVVKVCV, the amyloid nucleation score is reported as “inactive”. With YRSLITLQAIRCGIWFCGLW the amyloid nucleation score was “inactive”. Work on YRSSDQDVTVIMCLLANYYN yielded an amyloid nucleation score of 2.37 ± 0.057. For YRYVCWFTTILTYTNGRFSS, the amyloid nucleation score was “inactive”. In the case of YRYVNN, the amyloid nucleation score is reported as “inactive”. For YRYYFRSEVPEDKEDDGYLL, the amyloid nucleation score was “inactive”. For YSALRFSKSCGRPCCVYNSF, the amyloid nucleation score was “inactive”. For YSCYSSLL, the amyloid nucleation score was “inactive”. For YSFHLIIESPKLVLFTHFTS, the amyloid nucleation score was “inactive”. In the case of YSGCRVLLQWVEFSCRWIWY, the amyloid nucleation score is reported as “inactive”.
